pIC50: −log10 of the molar value.
How the values were obtained:
[1] = target: ErbB3 500.Fc (truncated ErbB3 ectodomain-Fc fusion protein homodimer) (human) (UniProt P21860); assay: summary of the Eu-ligand displacement assays (ErbB3 fragment, HRGβ)
[2] = target: ErbB4 497.Fc (truncated ErbB4 ectodomain-Fc fusion protein homodimer) (human) (UniProt Q15303); assay: summary of the Eu-ligand displacement assays (ErbB4 fragment, HRGβ)
[3] = target: ErbB3 500.Fc (truncated ErbB3 ectodomain-Fc fusion protein homodimer) (human) (UniProt P21860); assay: displacement of Eu-HRGβ by unlabelled HRGβ from ErbB3 500.Fc captured on protein G
[4] = target: ErbB4 497.Fc (truncated ErbB4 ectodomain-Fc fusion protein homodimer) (human) (UniProt Q15303); assay: displacement of Eu-HRGβ by unlabelled HRGβ from ErbB4 497.Fc captured on protein G
[5] = target: full-length ErbB4 ectodomain-Fc fusion homodimer (human) (UniProt Q15303); assay: displacement of Eu-BTC by unlabelled HRGβ from ErbB4 ectodomain-Fc captured on protein G
Chain of full-length ErbB4 ectodomain-Fc fusion homodimer (human) (Q15303 26-651): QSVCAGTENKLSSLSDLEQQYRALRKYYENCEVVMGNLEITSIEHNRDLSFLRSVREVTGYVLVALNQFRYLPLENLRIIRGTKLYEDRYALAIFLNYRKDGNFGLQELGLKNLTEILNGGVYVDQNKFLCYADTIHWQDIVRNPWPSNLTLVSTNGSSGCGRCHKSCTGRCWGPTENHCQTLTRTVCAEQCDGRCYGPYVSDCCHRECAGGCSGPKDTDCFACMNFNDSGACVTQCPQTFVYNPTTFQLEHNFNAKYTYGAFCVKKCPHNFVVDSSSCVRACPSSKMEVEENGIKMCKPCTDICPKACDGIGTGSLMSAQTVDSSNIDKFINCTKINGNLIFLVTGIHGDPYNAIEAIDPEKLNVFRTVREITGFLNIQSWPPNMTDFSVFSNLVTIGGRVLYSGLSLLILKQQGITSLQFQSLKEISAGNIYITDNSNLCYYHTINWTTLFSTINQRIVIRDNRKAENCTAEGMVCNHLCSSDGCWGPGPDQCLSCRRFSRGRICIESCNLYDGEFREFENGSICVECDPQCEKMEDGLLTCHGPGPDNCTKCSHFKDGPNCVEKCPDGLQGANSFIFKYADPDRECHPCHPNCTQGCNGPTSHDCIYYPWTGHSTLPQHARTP

[6] = target: ErbB2/4 full-length ectodomain-Fc heterodimer (human) (UniProt P04626); assay: displacement of Eu-BTC by unlabelled HRGβ from ErbB2/4 ectodomain-Fc captured on protein G

Chain of ErbB4 497.Fc (truncated ErbB4 ectodomain-Fc fusion protein homodimer) (human) (Q15303 26-497, form in doubt): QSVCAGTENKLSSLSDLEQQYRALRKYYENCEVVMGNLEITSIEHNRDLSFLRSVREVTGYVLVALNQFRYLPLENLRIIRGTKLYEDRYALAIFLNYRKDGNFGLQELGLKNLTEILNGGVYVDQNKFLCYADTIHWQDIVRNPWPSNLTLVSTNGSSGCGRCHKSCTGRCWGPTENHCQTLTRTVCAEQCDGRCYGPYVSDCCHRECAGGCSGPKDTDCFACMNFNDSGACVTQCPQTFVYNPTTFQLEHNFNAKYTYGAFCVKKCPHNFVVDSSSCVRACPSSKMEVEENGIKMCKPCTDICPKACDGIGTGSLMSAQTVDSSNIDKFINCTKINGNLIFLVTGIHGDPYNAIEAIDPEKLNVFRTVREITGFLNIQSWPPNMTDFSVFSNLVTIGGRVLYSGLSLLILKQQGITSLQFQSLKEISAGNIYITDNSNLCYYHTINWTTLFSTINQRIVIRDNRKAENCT
Chain of ErbB3 500.Fc (truncated ErbB3 ectodomain-Fc fusion protein homodimer) (human) (P21860 20-500, form in doubt): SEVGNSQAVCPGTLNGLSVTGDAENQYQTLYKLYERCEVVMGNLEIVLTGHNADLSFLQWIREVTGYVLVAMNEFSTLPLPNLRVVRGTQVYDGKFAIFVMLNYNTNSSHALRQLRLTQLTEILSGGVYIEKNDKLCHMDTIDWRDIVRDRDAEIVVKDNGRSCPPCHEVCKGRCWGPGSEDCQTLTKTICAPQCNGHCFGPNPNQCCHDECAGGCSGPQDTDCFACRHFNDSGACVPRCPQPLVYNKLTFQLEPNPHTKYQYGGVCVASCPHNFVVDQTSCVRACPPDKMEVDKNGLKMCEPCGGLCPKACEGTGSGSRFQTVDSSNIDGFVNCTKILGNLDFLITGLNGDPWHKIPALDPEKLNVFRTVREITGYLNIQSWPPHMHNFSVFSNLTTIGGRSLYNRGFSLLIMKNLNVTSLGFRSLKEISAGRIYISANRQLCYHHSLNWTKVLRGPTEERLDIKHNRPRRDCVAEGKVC

β-heregulin (HRGβ, Sigma) (ligand)
affinity [1]: < 1 nM
affinity [2]: < 1 nM
pIC50 [3]: 9.31
pIC50 [4]: 10.24
pIC50 [5]: 7.74
change of the IC50 against the ErbB4 ectodomain-Fc homodimer [6]: 100 fold

Reference: US20060234343A1
